Test [1] deals with T1, SENP5-Flag (human SENP5 with C-terminal Flag epitope) (human, UniProt Q96HI0 1-755, limits assumed).
T1 sequence (looked up): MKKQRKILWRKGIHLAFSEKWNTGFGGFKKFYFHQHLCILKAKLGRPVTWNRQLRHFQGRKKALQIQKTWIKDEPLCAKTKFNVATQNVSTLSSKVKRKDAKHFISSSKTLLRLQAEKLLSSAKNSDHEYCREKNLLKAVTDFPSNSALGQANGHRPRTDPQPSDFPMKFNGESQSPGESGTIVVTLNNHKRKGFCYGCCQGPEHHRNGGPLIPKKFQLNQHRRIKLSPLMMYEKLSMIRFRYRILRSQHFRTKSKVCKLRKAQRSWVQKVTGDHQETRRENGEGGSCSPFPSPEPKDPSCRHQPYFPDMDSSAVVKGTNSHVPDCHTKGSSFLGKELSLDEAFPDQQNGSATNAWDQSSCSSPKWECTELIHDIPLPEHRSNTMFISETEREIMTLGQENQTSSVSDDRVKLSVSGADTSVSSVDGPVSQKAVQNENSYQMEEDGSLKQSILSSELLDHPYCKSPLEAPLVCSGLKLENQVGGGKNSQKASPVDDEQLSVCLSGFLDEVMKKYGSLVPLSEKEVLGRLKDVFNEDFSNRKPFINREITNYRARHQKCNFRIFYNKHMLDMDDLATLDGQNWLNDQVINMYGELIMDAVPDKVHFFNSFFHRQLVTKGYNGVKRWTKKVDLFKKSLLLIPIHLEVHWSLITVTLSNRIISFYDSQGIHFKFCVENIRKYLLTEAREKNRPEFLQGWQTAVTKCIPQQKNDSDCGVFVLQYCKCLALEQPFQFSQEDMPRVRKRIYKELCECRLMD
Description: Flag immunoprecipitation of DUBs from 293T cells cotransfected with ID2, MG-132 treated (FIG. 2B). On the procedure: (§1) FIG. 2. […] (A) Western blot (WB) analysis of 293T transfected with Flag-tagged deubiquitinases (DUBs) or an empty vector (−). Where indicated, cells were treated with […] MG-132 for 4 hr. (B) Flag-tagged DUBs were immunoprecipitated (IP) from 293T cells cotransfected with ID2 and treated with […] MG-132 for 6 hr.

In test [2] the target is T2, OTUD5-Flag (human OTUD5 with C-terminal Flag epitope) (human, UniProt Q96G74 1-571, limits assumed).
T2 sequence (looked up): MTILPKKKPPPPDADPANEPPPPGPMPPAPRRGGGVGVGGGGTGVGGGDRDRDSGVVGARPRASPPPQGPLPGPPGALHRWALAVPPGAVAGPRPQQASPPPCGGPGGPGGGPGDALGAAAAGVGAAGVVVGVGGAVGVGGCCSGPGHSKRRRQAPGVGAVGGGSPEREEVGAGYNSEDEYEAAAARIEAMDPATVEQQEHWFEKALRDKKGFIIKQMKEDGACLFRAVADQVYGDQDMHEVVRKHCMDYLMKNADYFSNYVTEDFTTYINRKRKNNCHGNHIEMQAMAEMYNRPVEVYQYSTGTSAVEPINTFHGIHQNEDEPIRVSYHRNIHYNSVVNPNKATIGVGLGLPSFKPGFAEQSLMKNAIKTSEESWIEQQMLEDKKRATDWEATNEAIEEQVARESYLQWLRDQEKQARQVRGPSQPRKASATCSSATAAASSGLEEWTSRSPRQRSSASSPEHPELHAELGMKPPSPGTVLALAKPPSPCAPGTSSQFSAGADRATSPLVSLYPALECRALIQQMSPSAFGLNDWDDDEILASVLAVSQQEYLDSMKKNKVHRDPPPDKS
Described as above. As for the experimental part:
as §1

B1: ID2 (co-transfected / co-expressed in 293T cells) (other)
chain: MKAFSPVRSVRKNSLSDHSLGISRSKTPVDDPMSLLYNMNDCYSKLKELVPSIPQNKKVSKMEILQHVIDYILDLQIALDSHPTIVSLHHQRPGQNQASRTPLTTLNTDISILSLQASEFPSELMSNDSKALCG
notes: ID2 was amplified from Jurkat-derived cDNA; The methods describe only a C-terminal Flag version in pRK2001
Turning to B1, the binding result in test [1] and in test [2] was “no binding” throughout.

For the origin of these results see patent publication US20140199327A1, “METHODS OF PROMOTING DIFFERENTIATION” (Genentech, Inc., priority 2011, published 2014).
